# According to US20250197482A1 (UNITED STATES OF AMERICA AS REPRESENTED BY THE SECRETARY …, published 2025):
# B1: CAP256V2LS-10E8-5 (bispecific antibody)
# heavy chain: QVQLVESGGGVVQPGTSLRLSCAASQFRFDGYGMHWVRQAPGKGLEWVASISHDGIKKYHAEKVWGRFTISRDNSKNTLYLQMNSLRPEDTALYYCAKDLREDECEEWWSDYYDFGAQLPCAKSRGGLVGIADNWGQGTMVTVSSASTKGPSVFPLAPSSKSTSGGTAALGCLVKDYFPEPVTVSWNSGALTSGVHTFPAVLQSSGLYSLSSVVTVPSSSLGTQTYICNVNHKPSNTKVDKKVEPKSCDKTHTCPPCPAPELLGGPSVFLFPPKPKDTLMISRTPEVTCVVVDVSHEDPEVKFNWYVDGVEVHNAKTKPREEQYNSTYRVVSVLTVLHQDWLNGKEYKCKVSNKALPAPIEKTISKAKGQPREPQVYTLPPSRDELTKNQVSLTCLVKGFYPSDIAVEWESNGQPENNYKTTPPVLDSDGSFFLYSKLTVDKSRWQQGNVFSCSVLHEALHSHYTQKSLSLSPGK
# light chain (10E8v4 scFv, linker, CAP256V2LS LC): EVRLVESGGGLVKPGGSLRLSCSASGFDFDNAWMTWVRQPPGKGLEWVGRITGPGEGWSVDYAESVKGRFTISRDNTKNTLYLEMNNVRTEDTGYYFCARTGKYYDFWSGYPPGEEYFQDWGQGTLVIVSSGGGGSGGGGSGGGGSSELTQDPAVSVALKQTVTITCRGDSLRSHYASWYQKKPGQAPVLLFYGKNNRPSGIPDRFSGSASGNRASLTITGAQAEDEADYYCSSRDKSGSRLSVFGGGTKLTVDKTHTGDKTHTQSVLTQPPSVSAAPGQKVTISCSGNTSNIGNNFVSWYQQRPGRAPQLLIYETDKRPSGIPDRFSASKSGTSGTLAITGLQTGDEADYYCATWAASLSSARVFGTGTQVIVLGQPKVNPTVTLFPPSSEELQANKATLVCLISDFYPGAVTVAWKADSSPVKAGVETTTPSKQSNNKYAASSYLSLTPEQWKSHRSYSCQVTHEGSTVEKTVAPTECS
# B2: CAP256V2LS-10E8-6 (bispecific antibody)
# heavy chain: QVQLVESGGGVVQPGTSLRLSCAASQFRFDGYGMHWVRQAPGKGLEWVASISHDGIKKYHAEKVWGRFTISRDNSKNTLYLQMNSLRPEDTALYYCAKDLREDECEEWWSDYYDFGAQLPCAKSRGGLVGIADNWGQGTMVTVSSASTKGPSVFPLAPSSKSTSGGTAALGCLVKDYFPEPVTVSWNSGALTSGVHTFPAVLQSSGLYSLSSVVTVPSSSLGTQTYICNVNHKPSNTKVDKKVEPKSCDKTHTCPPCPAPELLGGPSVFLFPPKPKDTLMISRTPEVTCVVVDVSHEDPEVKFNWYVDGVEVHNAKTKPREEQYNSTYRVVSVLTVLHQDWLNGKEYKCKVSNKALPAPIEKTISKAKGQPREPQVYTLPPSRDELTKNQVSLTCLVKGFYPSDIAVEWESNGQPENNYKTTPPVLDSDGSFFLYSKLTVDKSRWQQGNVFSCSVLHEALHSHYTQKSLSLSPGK
# light chain (10E8v4 scFv, linker, CAP256V2LS LC): EVRLVESGGGLVKPGGSLRLSCSASGFDFDNAWMTWVRQPPGKGLEWVGRITGPGEGWSVDYAESVKGRFTISRDNTKNTLYLEMNNVRTEDTGYYFCARTGKYYDFWSGYPPGEEYFQDWGQGTLVIVSSGGGGSGGGGSGGGGSSELTQDPAVSVALKQTVTITCRGDSLRSHYASWYQKKPGQAPVLLFYGKNNRPSGIPDRFSGSASGNRASLTITGAQAEDEADYYCSSRDKSGSRLSVFGGGTKLTVDKTHTGDKTHTGDKTHTQSVLTQPPSVSAAPGQKVTISCSGNTSNIGNNFVSWYQQRPGRAPQLLIYETDKRPSGIPDRFSASKSGTSGTLAITGLQTGDEADYYCATWAASLSSARVFGTGTQVIVLGQPKVNPTVTLFPPSSEELQANKATLVCLISDFYPGAVTVAWKADSSPVKAGVETTTPSKQSNNKYAASSYLSLTPEQWKSHRSYSCQVTHEGSTVEKTVAPTECS
# B3: CAP256V2LS-J3-1 (bispecific antibody)
# heavy chain: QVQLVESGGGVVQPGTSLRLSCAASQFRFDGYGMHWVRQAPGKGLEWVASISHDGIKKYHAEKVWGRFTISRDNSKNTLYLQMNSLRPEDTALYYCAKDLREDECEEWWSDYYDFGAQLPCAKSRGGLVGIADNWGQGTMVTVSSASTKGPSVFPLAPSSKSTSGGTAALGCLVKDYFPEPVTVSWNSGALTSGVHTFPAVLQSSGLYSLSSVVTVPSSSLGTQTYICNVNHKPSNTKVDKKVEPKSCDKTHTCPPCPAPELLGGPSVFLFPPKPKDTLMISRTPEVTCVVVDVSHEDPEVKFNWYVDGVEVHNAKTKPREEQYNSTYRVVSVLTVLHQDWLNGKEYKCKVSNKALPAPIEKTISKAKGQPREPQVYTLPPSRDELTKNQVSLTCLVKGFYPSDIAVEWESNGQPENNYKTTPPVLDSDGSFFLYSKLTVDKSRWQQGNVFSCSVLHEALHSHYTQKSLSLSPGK
# light chain (J3 VHH, linker, CAP256V2LS LC): EVQLVESGGGLVQAGGFLRLSCELRGSIFNQYAMAWFRQAPGKEREFVAGMGAVPHYGEFVKGRFTISRDNAKSTVYLQMSSLKPEDTAIYFCARSKSTYISYNSNGYDYWGRGTQVTVSSGGSGGQSVLTQPPSVSAAPGQKVTISCSGNTSNIGNNFVSWYQQRPGRAPQLLIYETDKRPSGIPDRFSASKSGTSGTLAITGLQTGDEADYYCATWAASLSSARVFGTGTQVIVLGQPKVNPTVTLFPPSSEELQANKATLVCLISDFYPGAVTVAWKADSSPVKAGVETTTPSKQSNNKYAASSYLSLTPEQWKSHRSYSCQVTHEGSTVEKTVAPTECS
# B4: CAP256V2LS-10E8-4 (bispecific antibody)
# heavy chain: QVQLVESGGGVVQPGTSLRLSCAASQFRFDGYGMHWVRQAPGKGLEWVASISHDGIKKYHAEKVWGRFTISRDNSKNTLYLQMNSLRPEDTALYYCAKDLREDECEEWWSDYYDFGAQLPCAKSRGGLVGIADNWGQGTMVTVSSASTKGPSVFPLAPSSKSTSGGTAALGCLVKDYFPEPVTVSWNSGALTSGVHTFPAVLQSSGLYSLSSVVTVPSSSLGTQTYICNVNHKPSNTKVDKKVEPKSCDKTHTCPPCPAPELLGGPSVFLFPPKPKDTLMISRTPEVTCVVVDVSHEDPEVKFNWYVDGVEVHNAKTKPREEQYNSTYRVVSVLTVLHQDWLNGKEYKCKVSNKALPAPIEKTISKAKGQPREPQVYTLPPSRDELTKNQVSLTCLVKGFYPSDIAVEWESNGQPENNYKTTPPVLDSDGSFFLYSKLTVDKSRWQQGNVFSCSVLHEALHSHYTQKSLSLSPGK
# light chain (10E8v4 scFv, linker, CAP256V2LS LC): EVRLVESGGGLVKPGGSLRLSCSASGFDFDNAWMTWVRQPPGKGLEWVGRITGPGEGWSVDYAESVKGRFTISRDNTKNTLYLEMNNVRTEDTGYYFCARTGKYYDFWSGYPPGEEYFQDWGQGTLVIVSSGGGGSGGGGSGGGGSSELTQDPAVSVALKQTVTITCRGDSLRSHYASWYQKKPGQAPVLLFYGKNNRPSGIPDRFSGSASGNRASLTITGAQAEDEADYYCSSRDKSGSRLSVFGGGTKLTVDKTHTQSVLTQPPSVSAAPGQKVTISCSGNTSNIGNNFVSWYQQRPGRAPQLLIYETDKRPSGIPDRFSASKSGTSGTLAITGLQTGDEADYYCATWAASLSSARVFGTGTQVIVLGQPKVNPTVTLFPPSSEELQANKATLVCLISDFYPGAVTVAWKADSSPVKAGVETTTPSKQSNNKYAASSYLSLTPEQWKSHRSYSCQVTHEGSTVEKTVAPTECS
# Target: HIV-1 Env of strain WITO.33 (Env-pseudotyped virus) (HIV-1)
# Assay: cell-based or functional assay
row,Binder,"% neutralization, single point, Env-pseudotyped virus on TZM-bl [%]"
1,B1,18
2,B2,0
3,B3,3
4,B4,10

# Target: CAP256 wk34c80 (HIV-1)
# Assay: cell-based or functional assay
row,Binder,"% neutralization, single point, Env-pseudotyped virus on TZM-bl [%]"
1,B1,100
2,B2,100
3,B3,20
4,B4,23
